In IntAct's records for PubMed 31515488:

B1: Coiled-coil domain-containing protein 33 (Homo sapiens), Q8N5R6-5 (parent)
chain: MGEPGPPSPPAPKAAPGLIDSFSEMNNYRRAMQKMAEDILSLRRQASILEGENRILRSRLAQQEEEEGQGKASEAQNTVSMKQKLLLSELDMKKLRDRVQHLQNELIRKNDREKELLLLYQAQQPQAALLKQYQGKLQKMKALEETVRHQEKVIEKMERVLEDRLQDRSKPPPLNRQQGKPYTGFPMLSASGLPLGSMGENLPVELYSVLLAENAKLRTELDKNRHQQAPIILQQQALPVDPGELGAGGDLTERLQETHGPGHSECTETLPAQDLLSGTSDKFNLLAKLEHAQSRILSLESQLEDSARRWGREKQDLATRLQEQEKGFRHPSNSIIIEQPVSDPPGVAPRGSGGGAGSHRTPKVTGP
partner: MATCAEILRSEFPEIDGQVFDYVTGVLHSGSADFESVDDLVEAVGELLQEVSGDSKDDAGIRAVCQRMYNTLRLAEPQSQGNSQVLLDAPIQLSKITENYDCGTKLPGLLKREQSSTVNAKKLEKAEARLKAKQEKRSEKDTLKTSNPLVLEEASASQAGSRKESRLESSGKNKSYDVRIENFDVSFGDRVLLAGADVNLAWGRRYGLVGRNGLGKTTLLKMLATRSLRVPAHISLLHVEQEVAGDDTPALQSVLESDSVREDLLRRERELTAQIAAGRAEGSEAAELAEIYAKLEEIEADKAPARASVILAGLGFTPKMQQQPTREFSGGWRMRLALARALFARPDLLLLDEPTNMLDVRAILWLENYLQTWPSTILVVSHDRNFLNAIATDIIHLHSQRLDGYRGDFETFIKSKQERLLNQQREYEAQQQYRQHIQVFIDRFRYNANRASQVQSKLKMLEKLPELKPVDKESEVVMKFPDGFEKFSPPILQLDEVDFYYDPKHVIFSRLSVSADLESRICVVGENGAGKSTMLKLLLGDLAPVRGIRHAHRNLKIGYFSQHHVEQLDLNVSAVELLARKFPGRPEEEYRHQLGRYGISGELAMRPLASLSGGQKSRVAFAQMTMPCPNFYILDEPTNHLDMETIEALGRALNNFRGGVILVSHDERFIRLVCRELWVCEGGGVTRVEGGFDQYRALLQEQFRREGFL
B2: Notch homolog 2 N-terminal-like protein A (Homo sapiens), Q7Z3S9 (parent)
chain: MCVTYHNGTGYCKCPEGFLGEYCQHRDPCEKNRCQNGGTCVAQAMLGKATCRCASGFTGEDCQYSTSHPCFVSRPCLNGGTCHMLSRDTYECTCQVGFTGKECQWTDACLSHPCANGSTCTTVANQFSCKCLTGFTGQKCETDVNECDIPGHCQHGGTCLNLPGSYQCQCLQGFTGQYCDSLYVPCAPSPCVNGGTCRQTGDFTFECNCLPETVRRGTELWERDREVWNGKEHDEN
partner: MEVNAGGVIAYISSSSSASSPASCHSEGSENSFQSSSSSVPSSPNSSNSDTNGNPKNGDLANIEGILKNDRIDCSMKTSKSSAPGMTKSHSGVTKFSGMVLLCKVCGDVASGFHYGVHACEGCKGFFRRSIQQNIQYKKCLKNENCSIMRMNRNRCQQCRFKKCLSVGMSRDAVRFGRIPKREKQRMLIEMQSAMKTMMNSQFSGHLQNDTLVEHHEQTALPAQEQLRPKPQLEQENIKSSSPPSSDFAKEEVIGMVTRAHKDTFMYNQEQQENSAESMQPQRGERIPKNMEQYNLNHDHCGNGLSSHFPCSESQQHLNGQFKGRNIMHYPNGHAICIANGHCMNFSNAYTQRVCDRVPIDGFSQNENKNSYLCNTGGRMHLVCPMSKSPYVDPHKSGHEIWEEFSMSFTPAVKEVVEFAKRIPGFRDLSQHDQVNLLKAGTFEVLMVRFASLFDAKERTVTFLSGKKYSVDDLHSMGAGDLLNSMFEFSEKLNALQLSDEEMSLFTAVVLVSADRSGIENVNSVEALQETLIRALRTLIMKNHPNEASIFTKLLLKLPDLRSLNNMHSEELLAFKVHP
B3: 26S proteasome non-ATPase regulatory subunit 9 (Homo sapiens), O00233 (parent)
chain: MSDEEARQSGGSSQAGVVTVSDVQELMRRKEEIEAQIKANYDVLESQKGIGMNEPLVDCEGYPRSDVDLYQVRTARHNIICLQNDHKAVMKQVEEALHQLHARDKEKQARDMAEAHKEAMSRKLGQSESQGPPRAFAKVNSISPGSPASIAGLQVDDEIVEFGSVNTQNFQSLHNIGSVVQHSEGKPLNVTVIRRGEKHQLRLVPTRWAGKGLLGCNIIPLQR

Variants of: B1
Conditions: with abcf3_human ABCF3, Q9NUQ8

| effect of a mutation on the interaction | Variant |
| --- | --- |
| with no effect | P203L |
| with no effect | G196R |

Variants of: B2
Conditions: with nr1d2_human NR1D2, Q14995

| effect of a mutation on the interaction | Variant |
| --- | --- |
| with no effect | A115T |
| with no effect | R74Q |

Variants of: B3
Conditions: with prs6a_human PSMC3, P17980
Sequence of prs6a_human PSMC3, P17980 (P17980 whole entry): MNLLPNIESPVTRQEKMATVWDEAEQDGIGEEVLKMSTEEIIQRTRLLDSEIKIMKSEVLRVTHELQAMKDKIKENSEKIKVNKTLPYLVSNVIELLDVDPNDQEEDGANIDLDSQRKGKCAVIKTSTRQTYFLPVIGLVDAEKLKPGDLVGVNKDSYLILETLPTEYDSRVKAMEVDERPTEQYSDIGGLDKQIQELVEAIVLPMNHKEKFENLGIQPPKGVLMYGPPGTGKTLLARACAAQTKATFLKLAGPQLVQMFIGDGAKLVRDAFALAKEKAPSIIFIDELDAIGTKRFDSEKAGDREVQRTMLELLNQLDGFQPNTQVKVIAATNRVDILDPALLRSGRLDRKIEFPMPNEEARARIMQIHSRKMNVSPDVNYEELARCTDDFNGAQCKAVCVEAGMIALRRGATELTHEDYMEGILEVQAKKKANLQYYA

| effect of a mutation on the interaction | Variant |
| --- | --- |
| with no effect | MSDEEARQSGGSSQAGVVTVSDVQELMRRKEEIEAQIKANYDVLESQKGIGMNEPLVDCEGYPRSDVDLYQVRTARHNIICLQNDHKAVMKQVEEALHQLHARDKEKQAWDMAEAHKEAMSRKLGQSESQGPPRAFAKVNSISPGSPASIAGLQVDDEIVEFGSVNTQNFQSLHNIGSVVQHSEGKPLNVTVIRRGEKHQLRLVPTRWAGKGLLGCNIIPLQR [R110W] |

Variants of: B3
Conditions: with prs10_human PSMC6, P62333
Sequence of prs10_human PSMC6, P62333 (P62333 whole entry): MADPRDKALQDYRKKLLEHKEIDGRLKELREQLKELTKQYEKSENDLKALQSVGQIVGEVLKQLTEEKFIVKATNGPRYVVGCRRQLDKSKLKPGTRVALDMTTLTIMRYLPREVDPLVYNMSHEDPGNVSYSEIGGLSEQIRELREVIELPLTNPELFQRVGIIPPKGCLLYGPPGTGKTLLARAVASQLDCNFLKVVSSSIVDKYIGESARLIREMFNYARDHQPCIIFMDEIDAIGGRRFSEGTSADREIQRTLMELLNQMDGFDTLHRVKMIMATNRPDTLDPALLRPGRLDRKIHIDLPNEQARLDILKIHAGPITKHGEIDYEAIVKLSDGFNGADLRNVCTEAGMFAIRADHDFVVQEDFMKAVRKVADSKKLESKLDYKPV

| effect of a mutation on the interaction | Variant |
| --- | --- |
| with no effect | MSDEEARQSGGSSQAGVVTVSDVQELMRRKEEIEAQIKANYDVLESQKGIGMNEPLVDCEGYPRSDVDLYQVRTARHNIICLQNDHKAVMKQVEEALHQLHARDKEKQAWDMAEAHKEAMSRKLGQSESQGPPRAFAKVNSISPGSPASIAGLQVDDEIVEFGSVNTQNFQSLHNIGSVVQHSEGKPLNVTVIRRGEKHQLRLVPTRWAGKGLLGCNIIPLQR [R110W] |

Variants of: B3
Conditions: with cc136_human CCDC136, Q96JN2
Sequence of cc136_human CCDC136, Q96JN2 (Q96JN2 whole entry): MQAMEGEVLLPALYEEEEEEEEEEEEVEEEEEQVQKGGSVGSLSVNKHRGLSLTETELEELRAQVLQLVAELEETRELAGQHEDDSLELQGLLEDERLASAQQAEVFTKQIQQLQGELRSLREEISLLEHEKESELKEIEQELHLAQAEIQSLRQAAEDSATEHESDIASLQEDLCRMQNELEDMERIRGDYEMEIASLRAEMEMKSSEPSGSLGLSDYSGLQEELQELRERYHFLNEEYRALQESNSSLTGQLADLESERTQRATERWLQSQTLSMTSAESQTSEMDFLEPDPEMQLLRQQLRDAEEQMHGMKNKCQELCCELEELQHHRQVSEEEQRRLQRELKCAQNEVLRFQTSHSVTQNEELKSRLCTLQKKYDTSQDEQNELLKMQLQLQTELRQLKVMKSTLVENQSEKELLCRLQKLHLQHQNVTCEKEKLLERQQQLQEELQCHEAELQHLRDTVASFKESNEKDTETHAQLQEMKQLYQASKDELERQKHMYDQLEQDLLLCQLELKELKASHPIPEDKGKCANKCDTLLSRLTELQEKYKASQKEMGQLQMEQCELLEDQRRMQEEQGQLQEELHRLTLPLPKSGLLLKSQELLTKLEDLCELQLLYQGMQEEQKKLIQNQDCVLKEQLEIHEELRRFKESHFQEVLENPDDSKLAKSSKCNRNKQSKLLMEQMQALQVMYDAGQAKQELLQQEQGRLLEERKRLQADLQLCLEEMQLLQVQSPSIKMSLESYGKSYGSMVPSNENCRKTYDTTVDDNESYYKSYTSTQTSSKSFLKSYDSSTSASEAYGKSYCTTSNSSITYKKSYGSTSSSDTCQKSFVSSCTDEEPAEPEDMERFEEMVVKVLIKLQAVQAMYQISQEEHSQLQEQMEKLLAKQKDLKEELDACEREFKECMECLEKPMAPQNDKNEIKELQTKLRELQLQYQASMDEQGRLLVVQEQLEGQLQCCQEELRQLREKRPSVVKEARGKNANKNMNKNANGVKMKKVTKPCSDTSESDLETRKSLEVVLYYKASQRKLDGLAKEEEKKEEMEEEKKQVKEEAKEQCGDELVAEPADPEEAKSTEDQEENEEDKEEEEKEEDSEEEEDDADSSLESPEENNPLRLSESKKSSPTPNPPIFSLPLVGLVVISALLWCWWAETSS

| effect of a mutation on the interaction | Variant |
| --- | --- |
| with no effect | MSDEEARQSGGSSQAGVVTVSDVQELMRRKEEIEAQIKANYDVLESQKGIGMNEPLVDCEGYPRSDVDLYQVRTARHNIICLQNDHKAVMKQVEEALHQLHARDKEKQAWDMAEAHKEAMSRKLGQSESQGPPRAFAKVNSISPGSPASIAGLQVDDEIVEFGSVNTQNFQSLHNIGSVVQHSEGKPLNVTVIRRGEKHQLRLVPTRWAGKGLLGCNIIPLQR [R110W] |

Variants of: B3
Conditions: with spn90_human NCKIPSD

| effect of a mutation on the interaction | Variant |
| --- | --- |
| with no effect | MSDEEARQSGGSSQAGVVTVSDVQELMRRKEEIEAQIKANYDVLESQKGIGMNEPLVDCEGYPRSDVDLYQVRTARHNIICLQNDHKAVMKQVEEALHQLHARDKEKQAWDMAEAHKEAMSRKLGQSESQGPPRAFAKVNSISPGSPASIAGLQVDDEIVEFGSVNTQNFQSLHNIGSVVQHSEGKPLNVTVIRRGEKHQLRLVPTRWAGKGLLGCNIIPLQR [R110W] |
